The target in assay [1] is WT murine C3b (mouse). The experiment in a line: SPR; WT murine C3b amine coupled on a CM5 chip; 2-fold dilution series of the FH protein flowed over in duplicate, 30 µl/min; HBST (10 mM HEPES, 150 mM NaCl, 0.005% Tween 20, pH 7.4); steady-state model.
The target of assay [2] is WT murine C3b (mouse).
For assay [3], the target named is mouse homodimeric minimal factor H (mHDM-FH, mFH^1–5^18–20^R1–2) (mouse) (UniProt P06909). The experiment in a line: SEC; analytical size exclusion gel filtration; elution volume compared with mFLFH and mini-mFH.

The Kd is a measure of binding affinity in units of concentration. In general, stoichiometry N refers to the number of molecules, sites or subunits per partner or assembly.

As to “Mouse full length Factor H (mFLFH) (from UniProt P06909 19-1234) (natural protein)”, the Kd in assay [1] was 1700 nM.

Consider “mouse homodimeric minimal factor H (mHDM-FH, mFH^1–5^18–20^R1–2) (from UniProt P06909 19-321; P06909 1050-1234; Q61406 24-152)”, for which, in assay [1], the Kd worked out at 500 nM. Also, the IC50 of protection of sheep erythrocytes from lysis by mouse serum (haemolysis assay) in assay [2] came out at 8 nM. The same substance came in with a stoichiometry N in assay [3] of 2.

For the origin of these results see publication PMC8696033.
